Test: protease stability score; higher = more stable; yeast display proteolysis, trypsin and chymotrypsin;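 note: relative to predicted unfolded state with 0 unfolded-like and 1 meaning tenfold more protease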

DEWEEFVKRFLEAHVKANRTGDERLLQELIDPHVRIEFNGVELHGREIFTETISQLRIKDVNLRRYHMYDGQVEIHGELHGVFNGQEKDTKIHVREIKVDGRWKMKEYSIH
protease stability score: 0.994

DEWEELIEETAENIIRFIETGDEDFFRTFADPHMRFIYDQGDFRLIDHGREKVSEWLIRFLQEMRIIFIIEDVKVQGDKAHSQGRIHVNINGQRHEFNSRVIVVWVNGRLKYFRMSVR
protease stability score: 1.43

DEWEESHKLVSKMIADTDETGDERIKRRLLDPHARLIVDGREYHGREHMDKIWKYFGLDRIHVEVRRMHVYGDKVSLHVHSIYNGREVEVHIIIHKVDGRWHLHSVDIQ
protease stability score: 0.596

DEWEETAKKATKDQLRDVATGDEDSHESLLDPNVKLQVGDKTFHGREEIHRWLREFLNKIPNIRLEVKEIHTQGDFVILDMKMDIDGREIHVRIVMIKVDGRWFVNKLIII
protease stability score: 0.615

DEWEEWLKAILEELRRISHTGDEDEIINNADPNVKIKIGDKLIIGREEFRRIMLELSKHFGITRFEFELHDRRIVGDKIHLDGTSRFNGVDERTTLIIMKVNGRWILRSMHVE
protease stability score: 1.41

DEWEKDARDFTRILLEIFKTGDEKSITELLDPNARVEYGDKEMHGMHLMSRILLKDAKEIRVDHMRLRSIDVYNGVLHVNMEVDGTIDGRRDTYRLHVHTHKFDGRWRVENLIIR
protease stability score: 1.06

DEWEKLYEIALEIFLEVFKTGNEEMFLKQADPHVRLDVGDKHYHGREHVVKFLIDELKRVKNLKVSSEHESFVGDYAHMHIDLDIDGRRVDVEIVSLKVDGKWVLREVRLH
protease stability score: 1.34

DEWERLTEVMIRIFEEIVHTGDERVWEEMADPHVKVHIDGVHFHGREDLLYLLRKMGANVFDLKRSDIQGEKVYLDIQTEFNGQKRDSRFLIVKFNGRWLLESISIH
protease stability score: 1.47

DEWHELANEIMQLLIELWLTGDEEIVLKLADPNVKVKIIVNGRTYSNHGREMFHDWHRRVDYIHEIRIKDVTFVNGVVISDTHVDGTINGVRMRTDTKMIVVVVNGKLKSAEYRVE
protease stability score: 1.11

DEWHEYNEKLFELWEKANKTGDERLLRLLIDPHARLHFNGKHFHGREEVARLMTELRVDRFEIKRMEIQGEKLTVEGREDVTQGDFRFESNVNIIFLKINGRWSLERQHSE
protease stability score: 0.944

DEWKEDSRRAIELELRHLQTGDEDLTEKYADPHARVHIGDKEFHGRDHYIETLRRMGIKHVEVREIREQGDFLKMDVHVNVDGRELTVHFVMRKVNGRWRIHMIEVR
protease stability score: 1.11

DEWKRLALEVLRLWEEFMSTGDEKSVEELADPNVRILYDGVQLHGMDEVRRHLKELREHSHHVEIRRATVIDGRVHVDGTLDVTIEIGDKKIREEIRVKIHIIKVNGKWFVHSVEFR
protease stability score: 1.49

DEWLEIAHRFVEELVRSLLTGDEDTLTKLIDPNVRLNINGQEVVGMTEVNRAWHELRIEDEHIRRIDVQGDYVRIHSQRRGEVNGVHTEFEVVIIISKFDGRWVIKSEHVH
protease stability score: 1.24

DEWLEMAMRIIFRYLLLLATGDEDIVNHYMDPNVKIDVNGREEHGRERALEQLEEIRRQYPGLTLTHLHIEDLKVVGNYVRVDGYVEGRIDGRRIELKTEFIILKINGRWRMHSVKEH
protease stability score: 1.74

DEWREHMEKLADDFSHAMLTGNEESMDKFLDPHTRSIVNGVERHGREAFRIWINQIDHIRDVEFRHVDTQGNKIRSHTRFHGEVNGRRYIVEIEVILHVIDGRVKSVEIRNL
protease stability score: 1.38

DEWTEDVREALHLIKHSIETGDPRLIEELADPNVRVLYGNKVYHGREKLSDLVTEWRTTHVDFHHVRVIGDKIDIDVIIRSEYNGRVVDLKEKIVATKINGKWILHSRNIH
protease stability score: 0.531

DEWTHVLHEMLKLLLDAWDTGDEKVLHRMMDPNAKSEINGREFVGMHHISTWLKRERDRLGVEIHIHVRRINFQGDKLEVDSHFNVIIGDKEFHRSTRIELIIVNGRVHSLHIKID
protease stability score: 0.212

DEYDHIAKLMVKLWLEWYLTGDEDYFNHYADPEVRSEVGDKRFHGRELFMRYIWEHHRERGVEIEIIVRRVEVQGEKAEVDGELIVRQGDKEHRLRVHIELKVVNGVLKKIRIEFR
protease stability score: 0.561

DEYEREYKKFIDDMLHAWLTGDEDTLQELVDPNARLHFNGQELHGRDIWLRNYREHGMKVKSYHIEHREIQGEKIIIRGRLNGHVNGRNSNMDIILIIEKVDGRWVMQDIRIS
protease stability score: 1.98

DEYERIWRDLVKLILHAHKTGDEDHLKRLMDPNAKIHVGEFEMIGRTDEELWKRLLGIERFHIHRIDIRTISIFDGRLHIEVDSDGQINGKRVEHHIEITLVIIDGKLHSVSHTLK
protease stability score: 1.1

DEYKRDADEVIRLWAEAMETGDEKLFLELFDPDTRSIFNGVELHGRQDIEMWRNRYDHVRHVRTEVEDSHIYNGRVEDHVRLILDVEVNGQREHHSHEILVYSVKFDGRWHFTMVEIR
protease stability score: 0.607

DEYREEARKLMHDTAKHLHTGDEDMTNHYLDPNVKIQINGQEIHGMDKFEHDSRRFKGAKNDVRFELRLIQVIGDKVRIDGELYVRIRVGDKEYSFEVKVDIVVTKVDGVWKIKEIKIE
protease stability score: 0.806

DEYWHHMKKSFEDLHDARHTGDERFVMEMLDPNVRFDINGVEFIGREDWRRHLQELGVDHEEIILHDYHIFNGRVELDVRTVHHIGDYELRRDEHMDLRKVNGRWHIKEIRVR
protease stability score: 0.209

DHDDEESKHWLEFYLEIVQTGDEDSHKRLADPNTRLHIDGQVMHGREFMTMWFRHLVSKFKNARVEIRLRDTRKINGRVELDVELIFRVGDKEERREVQIFADKVDGRWHIKEFVVH
protease stability score: 2.22

DHDDEMLEHFMNLWLHAVATGDEELLSNLLDPNVREIINGKTIHGREEFLKLYHELARRIDHIHIRVRWYDMQGEFLISKTEIEFRFNGVNLKFETKMIVLKINGKWILHSIRFE
protease stability score: 1.26

DHDDERVEHFARHWVHNFLTGDWKKLTDQVDPHVRLDVNGQKFHGREAIREWLEHILREIRVHDLKFDHIHLQGDYTIIEGTQIIHYNGRTEIRKTRIEFIIVDGKFQEIRIKTL
protease stability score: 1.43

DHDDHMREHLIELFIRWTTTGDFDELLRLVDPNARFDVNGREIHGWDVFMKMYEDTRHLLGADHAEVRNKDERFQGDKVTITIEVTIEVGDKEHREERELYVRKVDGKWTMKSLKIR
protease stability score: 0.703

DHDEHDADRAVKWFLEDLRTGDEQLNERQADPHVRNDFNGVEIHGREEFLKHLSKLSNELGIKHLHVRHHRVYDGRLELHIELRFDGKTITLIIIKLKVNGRWYVESMHVH
protease stability score: 0.128

DHDEKRVREILELFLNAITTGDEETLRHLLDPNVKTDINGVELHGWKDILHHLMEMRIHVRHYETRHLNKIGEYLHLEVHVYGEHHFDGRTREDTYYVNVIILKVNGRWHLHQFSVH
protease stability score: 1.39

DHDEKVSKEVLHEFLHVLRTGNWDHLIKNIDPNARLEVDGVDIHGRENVHKFLDEFHKRMGVDHHELHDEKMTIIDGVLQIDLDTTTEFNGRRFKTTIHLFVLKINGRWTFKTLIIKHE
protease stability score: 2.03

DHDEKWAREVIRLLIEDIVTGDEESLSKLFDPHVRIEIGDKEHIGMEIALKLMIELWERLGVKHIHFHMSDIRVYDGRLDVDSRLHHVVNGRKHETKVRIFIRKINGRWVIESLVIH
protease stability score: 2.25

DHDEREYHHFVQILIHSMRTGDWVKLEELMDPHVLIRIGDKELHGREELYRFMLQARIELEVKDYRLYGDKVELDTLLSMLIGDKLSETDSRMKLEKVDGKWIIREIFVDPETKKRLLD
protease stability score: 1.64

DHDKEYADRSIELWLKSHETGDEELVMRLADPHARVYVGEYEDHGREMVMIMLRVLGVDHYSVRSWHVQGDKVSITGELQVGDKKFRSHLTVRKVNGRWLLSEVRIG
protease stability score: 1.16

DHDTRRHEKILSDYAHALHTGNFHMLKELMDPHVRLEIGDKEFVGREEVMRYLQHIRSYIHRLRIDHIEIQGDKIHSDVREHLHFEIGDKDHNHDTRVEQLWLKVNGRWLLQQIVVR
protease stability score: 2.16

DHEDDEFDFAIELWVTIMKTGDEEFLERYVDPHARLIVGDKRFHGREVIEFMLRRIDVLDRIEVEHRQSVNGRMIIHQHLHHAIDGRRNEVRMRVVVHKVDGRWDLDELQFD
protease stability score: 1.36

DHEDEHSEEMEQLIFTWLQTGDWEAFMKFLDPRVILHIGDKTVIGREKFIEFIEQFKNIRMKIHDVQVQGNKIHIDVRTDIDGREYREHIHIHIVNGRIRHIEVRHH
protease stability score: 1.92
